From patent US5780289 come the findings set out here.

For this assay, the target named is E. acervulina merozoite antigen (whole merozoites coated on the plate, or sonicated merozoites).
“peripheral blood leucocytes of chickens immunised with purified Eam20 (cells without a defined receptor)” displayed a 3H-thymidine incorporation in Dcpm of 922 Dcpm.
“peripheral blood leucocytes of chickens immunised with purified Eam45 (cells without a defined receptor)” showed a 3H-thymidine incorporation in Dcpm of 716 Dcpm.
Under “peripheral blood leucocytes of chickens immunised with purified Eam100 (cells without a defined receptor)” stands 1190 Dcpm; under “peripheral blood leucocytes of chickens immunised with purified Eam200 (cells without a defined receptor)”, 692 Dcpm.
As for “peripheral blood leucocytes of control chickens (cells without a defined receptor)”, the 3H-thymidine incorporation in Dcpm was found to be 14 Dcpm.
